Measured values from US6358505 (dated 2002).

target: T1, human G-CSF receptor (human, UniProt Q99062 25-836); assay: cell-based or functional assay
T1 sequence (looked up): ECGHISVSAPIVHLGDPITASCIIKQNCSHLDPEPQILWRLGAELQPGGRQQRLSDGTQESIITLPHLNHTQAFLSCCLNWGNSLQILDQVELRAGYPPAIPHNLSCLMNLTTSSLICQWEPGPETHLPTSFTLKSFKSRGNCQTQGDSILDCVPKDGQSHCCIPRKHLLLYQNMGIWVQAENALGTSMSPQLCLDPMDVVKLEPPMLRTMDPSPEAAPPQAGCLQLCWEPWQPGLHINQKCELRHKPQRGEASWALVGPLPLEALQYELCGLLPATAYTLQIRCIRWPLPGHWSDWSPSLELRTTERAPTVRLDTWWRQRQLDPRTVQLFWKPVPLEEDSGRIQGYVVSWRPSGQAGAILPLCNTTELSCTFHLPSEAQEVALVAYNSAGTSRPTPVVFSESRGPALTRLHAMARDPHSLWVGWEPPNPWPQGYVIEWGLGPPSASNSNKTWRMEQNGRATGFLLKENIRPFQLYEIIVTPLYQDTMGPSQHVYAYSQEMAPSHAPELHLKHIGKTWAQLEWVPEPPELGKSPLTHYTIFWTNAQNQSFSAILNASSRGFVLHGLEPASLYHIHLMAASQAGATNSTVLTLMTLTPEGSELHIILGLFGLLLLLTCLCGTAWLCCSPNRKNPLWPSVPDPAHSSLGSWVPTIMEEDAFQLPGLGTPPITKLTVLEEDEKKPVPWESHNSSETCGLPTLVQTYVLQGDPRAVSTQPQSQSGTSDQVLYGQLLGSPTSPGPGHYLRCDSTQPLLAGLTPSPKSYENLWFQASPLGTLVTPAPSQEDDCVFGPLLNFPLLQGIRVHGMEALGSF

Row | Molecule | EC50 (pM), Baf/3-G-CSF cell proliferation assay [pM]
1 | native G-CSF (from UniProt P09919 31-204) (ligand) | 60
2 | G-CSF receptor agonist expressed from pMON25186 (ligand) AMAPALQPTQGAMPAFASAFQRRAGGVLVASHLQSFLEVSYRVLRHLAQPSGGSGGSQSFLLKSLEQVRKIQGDGAALQEKATYKLCHPEELVLLGHSLGIPWAPLSSCPSQALQLAGCLSQLHSGLFLYQGLLQALEGISPELGPTLDTLQLDVADFATTIWQQMEELG | 92
3 | G-CSF receptor agonist expressed from pMON25184 (ligand) ASAFQRRAGGVLVASHLQSFLEVSYRVLRHLAQPTPLGPASSLPQSFLLKSLEQVRKIQGDGAALQEKLCATYKLCHPEELVLLGHSLGIPWAPLSSCPSQALQLAGCLSQLHSGLFLYQGLLQALEGISPELGPTLDTLQLDVADFATTIWQQMEELGMAPALQPTQGAMPAFA | 70
4 | G-CSF receptor agonist expressed from pMON3455 (ligand) AYKLCHPEELVLLGHSLGIPWAPLSSCPSQALQLAGCLSQLHSGLFLYQGLLQALEGISPELGPTLDTLQLDVADFATTIWQQMEELGMAPALQPTQGAMPAFASAFQRRAGGVLVASHLQSFLEVSYRVLRHLAQPSGGSGGSQSFLLKSLEQVRKIQGDGAALQEKLCAT | 102
5 | G-CSF receptor agonist expressed from pMON25188 (ligand) ASAFQRRAGGVLVASHLQSFLEVSYRVLRHLAQPSGGSGGSQSFLLKSLEQVRKIQGDGAALQEKLCATYKLCHPEELVLLGHSLGIPWAPLSSCPSQALQLAGCLSQLHSGLFLYQGLLQALEGISPELGPTLDTLQLDVADFATTIWQQMEELGMAPALQPTQGAMPAFA | 41
6 | G-CSF receptor agonist expressed from pMON25187 (ligand) ATQGAMPAFASAFQRRAGGVLVASHLQSFLEVSYRVLRHLAQPSGGSGGSQSFLLKSLEQVRKIQGDGAALQEKLCATYKLCHPEELVLLGHSLGIPWAPLSSCPSQALQLAGCLSQLHSGLFLYQGLLQALEGISPELGPTLDTLQLDVADFATTIWQQMEELGMAPALQP | 83
7 | G-CSF receptor agonist expressed from pMON25183 (ligand) ATQGAMPAFASAFQRRAGGVLVASHLQSFLEVSYRVLRHLAQPTPLGPASSLPQSFLLKSLEQVRKIQGDGAALQEKLCATYKLCHPEELVLLGHSLGIPWAPLSSCPSQALQLAGCLSQLHSGLFLYQGLLQALEGISPELGPTLDTLQLDVADFATTIWQQMEELGMAPALQP | 58
8 | G-CSF receptor agonist expressed from pMON3499 (ligand) LLGHSLGIPWAPLSSCPSQALQLAGCLSQLHSGLFLYQGLLQALEGISPELGPTLDTLQLDVADFATTIWQQMEELGMAPALQPTQGAMPAFASAFQRRAGGVLVASHLQSFLEVSYRVLRHLAQPTPLGPASSLPQSFLLKSLEQVRKIQGDGAALQEKLCATYKLCHPEELV | 137
9 | G-CSF receptor agonist expressed from pMON25182 (ligand) AMAPALQPTQGAMPAFASAFQRRAGGVLVASHLQSFLEVSYRVLRHLAQPTPLGPASSLPQSFLLKSLEQVRKIQGDGAALQEKLCATYKLCHPEELVLLGHSLGIPWAPLSSCPSQALQLAGCLSQLHSGLFLYQGLLQALEGISPELGPTLDTLQLDVADFATTIWQQMEELG | 38
10 | G-CSF receptor agonist expressed from pMON3450 (ligand) AYKLCHPEELVLLGHSLGIPWAPLSSCPSQALQLAGCLSQLHSGLFLYQGLLQALEGISPELGPTLDTLQLDVADFATTIWQQMEELGMAPALQPTQGAMPAFASAFQRRAGGVLVASHLQSFLEVSYRVLRHLAQPTPLGPASSLPQSFLLKSLEQVRKIQGDGAALQEKLCAT | 121
